These results are taken from article PMC11098746 (2024).

No end group written: not given here.

Sequences and labels used below:
B1: ADP264 (protein)
chain: GRFSLFGLGGEPGGGAAGPAAAADGGTVDLREMLAVSVLAAVRGGDEVRRVRESNVLHEKSKGKTREGAEDKMTSGDVLSNRKMFYLLKTAFPSVQINTEEHVDAADQEVILWDHKIPEDILKEVTTPKEVPAESVTVWIDPLDATQEYTEDLRKYVTTMVCVAVNGKPMLGVIHKPFSEYTAWAMVDGGSNVKARSSYNEKTPRIVVSRSHSGMVKQVALQTFGNQTTIIPAGGAGYKVLALLDVPDKSQEKADLYIHVTYIKKWDICAGNAILKALGGHMTTLSGEEISYTGSDGIEGGLLASIRMNHQALVRKLPDLEKTGHK
modifications: bait human Fc-tagged dimer
B2: ADP135 (protein)
chain: MTPPRLFWVWLLVAGTQGVNDGDMRLADGGATNQGRVEIFYRGQWGTVCDNLWDLTDASVVCRALGFENATQALGRAAFGQGSGPIMLDEVQCTGTEASLADCKSLGWLKSNCRHERDAGVVCTNETRSTHTLDLSRELSEALGQIFDSQRGCDLSISVNVQGEDALGFCGHTVILTANLEAQALWKEPGSNVTMSVDAECVPMVRDLLRYFYSRRIDITLSSVKCFHKLASAYGARQLQGYCASLFAILLPQDPSFQMPLDLYAYAVATGDALLEKLCLQFLAWNFEALTQAEAWPSVPTDLLQLLLPRSDLAVPSELALLKAVDTWSWGERASHEEVEGLVEKIRFPMMLPEELFELQFNLSLYWSHEALFQKKTLQALEFHTVPFQLLARYKGLNLTEDTYKPRIYTSPTWSAFVTDSSWSARKSQLVYQSRRGPLVKYSSDYFQAPSDYRYYPYQSFQTPQHPSFLFQDKRVSWSLVYLPTIQSCWNYGFSCSSDELPVLGLTKSGGSDRTIAYENKALMLCEGLFVADVTDFEGWKAAIPSALDTNSSKSTSSFPCPAGHFNGFRTVIRPFYLTNSSGVD
modifications: bait human Fc-tagged dimer
B3: ADP159 (protein)
chain: MAALRPTLLPPSLPLLLLLMLGMGCWAREVLVPEGPLYRVAGTAVSISCNVTGYEGPAQQNFEWFLYRPEAPDTALGIVSTKDTQFSYAVFKSRVVAGEVQVQRLQGDAVVLKIARLQAQDAGIYECHTPSTDTRYLGSYSGKVELRVLPDVLQVSAAPPGPRGRQAPTSPPRMTVHEGQELALGCLARTSTQKHTHLAVSFGRSVPEAPVGRSTLQEVVGIRSDLAVEAGAPYAERLAAGELRLGKEGTDRYRMVVGGAQAGDAGTYHCTAAEWIQDPDGSWAQIAEKRAVLAHVDVQTLSSQLAVTVGPGERRIGPGEPLELLCNVSGALPPAGRHAAYSVGWEMAPAGAPGPGRLVAQLDTEGVGSLGPGYEGRHIAMEKVASRTYRLRLEAARPGDAGTYRCLAKAYVRGSGTRLREAASARSRPLPVHVREEGVVLEAVAWLAGGTVYRGETASLLCNISVRGGPPGLRLAASWWVERPEDGELSSVPAQLVGGVGQDGVAELGVRPGGGPVSVELVGPRSHRLRLHSLGPEDEGVYHCAPSAWVQHADYSWYQAGSARSGPVTVYPYMHALDT
modifications: bait human Fc-tagged dimer
B4: ADP304 (protein)
chain: MASGWWLWPLVAVCTADFFRDEAERIMRDSPVIDGHNDLPWQLLDMFNNRLQDERANLTTLAGTHTNIPKLRAGFVGGQFWSVYTPCDTQNKDAVRRTLEQMDVVHRMCRMYPETFLYVTSSAGIRQAFREGKVASLIGVEGGHSIDSSLGVLRALYQLGMRYLTLTHSCNTPWADNWLVDTGDSEPQSQGLSPFGQRVVKELNRLGVLIDLAHVSVATMKATLQLSRAPVIFSHSSAYSVCASRRNVPDDVLRLVKQTDSLVMVNFYNNYISCTNKANLSQVADHLDHIKEVAGARAVGFGGDFDGVPRVPEGLEDVSKYPDLIAELLRRNWTEAEVKGALADNLLRVFEAVEQASNLTQAPEEEPIPLDQLGGSCRTHYGYSS
modifications: bait human Fc-tagged dimer
B5: ADP391 (protein)
chain: SSRHVLLQEEVAELQGQVQRTEVARGRLEKRNSDLLLLVDTHKKQIDQKEADYGRLSSRLQAREGLGKRCEDDKVKLQNNISYQMADIHHLKEQLAELRQEFLRQEDQLQDYRKNNTYLVKRLEYESFQCGQQMKELRAQHEENIKKLADQFLEEQKQETQKIQSNDGKELDINNQVVPKNIPKVAENVADKNEEPSSNHIPHGKEQIKRGGDAGMPGIEENDLAKVDDLPPALRKPPISVSQHESHQAISHLPTGQPLSPNMPPDSHINHNGNPGTSKQNPSSPLQRLIPGSNLDSEPRIQTDILKQATKDRVSDFHKLKQSRFFDENESPVDPQHGSKLADYNGDDGNVGEYEADKQAELAYNEEEDGDGGEEDVQGERGPGLHAITMKPTSKFFG
modifications: bait human Fc-tagged dimer
B6: ADP137 (protein)
chain: MAVVGNPRSWSCQWLPILILLLGTGHGPGVEGVTHYKAGDPVILYVNKVGPYHNPQETYHYYQLPVCCPEKIRHKSLSLGEVLDGDRMAESLYEIRFRENVEKRILCHMQLSSAQVEQLRQAIEELYYFEFVVDDLPIRGFVGYMEESGFLPHSHKIGLWTHLDFHLEFHGDRIIFANVSVRDVKPHSLDGLRPDEFLGLTHTYSVRWSETSVERRSDRRRGDDGGFFPRTLEIHWLS
modifications: bait human Fc-tagged dimer
B7: ADP153 (protein)
chain: MAGIWTLLPLVLTSVARLSSKSVNAQVTDINSKGLELRKTVTTVETQNLEGLHHDGQFCHKPCPPGERKARDCTVNGDEPDCVPCQEGKEYTDKAHFSSKCRRCRLCDEGHGLEVEINCTRTQNTKCRCKPNFFCNSTVCEHCDPCTKCEHGIIKECTLTSNTKCKEEGS
modifications: bait human Fc-tagged dimer
B8: ADP281 (protein)
chain: SIYEMVVDVLFLCFAIDTKYNDGSPGREFYMDKVLMEFVENSRKAMKEAGKGGVADSRELKPMASG
modifications: also: human Fc-tagged dimer
B9: ADP109 (protein)
chain: MGIQGGSVLFGLLLVLAVFCHSGHSLQCYNCPNPTADCKTAVNCSSDFDACLITKAGLQVYNKCWKFEHCNFNDVTTRLRENELTYYCCKKDLCNFNEQLEN
modifications: bait human Fc-tagged dimer
B10: ADP388 (protein)
chain: SEGHGGAQLQAELRSLKEAFSNFSSSTLTEVQAISTHGGSVGDKITSLGAKLEKQQQDLKADHDALLFHLKHFPVDLRFVACQMELLHSNGSQRTCCPVNWVEHQGSCYWFSHSGKAWAEAEKYCQLENAHLVVINSWEEQKFIVQHTNPFNTWIGLTDSDGSWKWVDGTDYRHNYKNWAVTQPDNWHGHELGGSEDCVEVQPDGRWNDDFCLQVYRWVCEKRRNATGEVA
modifications: bait human Fc-tagged dimer
B11: ADP345 (protein)
chain: MALLAGGLSRGLGSHPAAAGRDAVVFVWLLLSTWCTAPARAIQVTVSNPYHVVILFQPVTLPCTYQMTSTPTQPIVIWKYKSFCRDRIADAFSPASVDNQLNAQLAAGNPGYNPYVECQDSVRTVRVVATKQGNAVTLGDYYQGRRITITGNADLTFDQTAWGDSGVYYCSVVSAQDLQGNNEAYAELIVLGRTSGVAELLPGFQAGP
modifications: bait human Fc-tagged dimer
B12: ADP131 (protein)
chain: MVRMVSWSFHKLKTMKHLLLLLLCVFLVKSQGVNDNEEGFFSARGHRPLDKKREEAPSLRPAPPPISGGGYRARPAKAAATQKKVERKAPDAGGCLHADPDLGVLCPTGCQLQEALLQQERPIRNSVDELNNNVEAVSQTSSSSFQYMYLLKDLWQKRQKQVKDNENVVNEYSSELEKHQLYIDETVNSNIPTNLRVLRSILENLRSKIQKLESDVSAQMEYCRTPCTVSCNIPVVSGKECEEIIRKGGETSEMYLIQPDSSVKPYRVYCDMNTENGGWTVIQNRQDGSVDFGRKWDPYKQGFGNVATNTDGKNYCGLPGEYWLGNDKISQLTRMGPTELLIEMEDWKGDKVKAHYGGFTVQNEANKYQISVNKYRGTAGNALMDGASQLMGENRTMTIHNGMFFSTYDRDNDGWLTSDPRKQCSKEDGGGWWYNRCHAANPNGRYYWGGQYTWDMAKHGTDDGVVWMNWKGSWYSMRKMSMKIRPFFPQQ
modifications: bait human Fc-tagged dimer
B13: ADP149 (protein)
chain: MAWKHVPFLVMISLLSLSPNHLFLAQLIPDPEDVERGNDHGTPIPTSDNDDNSLGYTGSRLRQEDFPPRIVEHPSDLIVSKGEPATLNCKAEGRPTPTIEWYKGGERVETDKDDPRSHRMLLPSGSLFFLRIVHGRKSRPDEGVYVCVARNYLGEAVSHNASLEVAILRDDFRQNPSDVMVAVGEPAVMECQPPRGHPEPTISWKKDGSPLDDKDERITIRGGKLMITYTRKSDAGKYVCVGTNMVGERESEVAELTVLERPSFVKRPSNLAVTVDDSAEFKCEARGDPVPTVRWRKDDGELPKSRYEIRDDHTLKIRKVTAGDMGSYTCVAENMVGKAEASATLTVQEPPHFVVKPRDQVVALGRTVTFQCEATGNPQPAIFWRREGSQNLLFSYQPPQSSSRFSVSQTGDLTITNVQRSDVGYYICQTLNVAGSIITKAYLEVTDVIADRPPPVIRQGPVNQTVAVDGTFVLSCVATGSPVPTILWRKDGVLVSTQDSRIKQLENGVLQIRYAKLGDTGRYTCIASTPSGEATWSAYIEVQEFGVPVQPPRPTDPNLIPSAPSKPEVTDVSRNTVTLSWQPNLNSGATPTSYIIEAFSHASGSSWQTVAENVKTETSAIKGLKPNAIYLFLVRAANAYGISDPSQISDPVKTQDVLPTSQGVDHKQVQRELGNAVLHLHNPTVLSSSSIEVHWTVDQQSQYIQGYKILYRPSGANHGESDWLVFEVRTPAKNSVVIPDLRKGVNYEIKARPFFNEFQGADSEIKFAKTLEEAPSAPPQGVTVSKNDGNGTAILVSWQPPPEDTQNGMVQEYKVWCLGNETRYHINKTVDGSTFSVVIPFLVPGIRYSVEVAASTGAGSGVKSEPQFIQLDAHGNPVSPEDQVSLAQQISDVVKQP
modifications: bait human Fc-tagged dimer

Chain of Circumsporozoite protein (CSP) (Q7K740 19-374): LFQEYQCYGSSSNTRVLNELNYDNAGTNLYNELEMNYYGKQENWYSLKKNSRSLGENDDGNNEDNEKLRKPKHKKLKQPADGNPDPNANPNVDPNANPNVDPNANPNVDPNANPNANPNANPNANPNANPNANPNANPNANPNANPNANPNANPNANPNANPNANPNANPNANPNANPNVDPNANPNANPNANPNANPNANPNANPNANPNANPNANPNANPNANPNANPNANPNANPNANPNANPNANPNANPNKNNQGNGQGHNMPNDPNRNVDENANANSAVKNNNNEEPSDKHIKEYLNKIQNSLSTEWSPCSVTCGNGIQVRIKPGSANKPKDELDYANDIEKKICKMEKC

The test addresses Circumsporozoite protein (CSP) (Plasmodium falciparum (isolate 3D7), UniProt Q7K740). In words: AVEXIS screen signal:noise (double-corrected).
For B1, the binding score is 0.964.
The molecule B2 returned a binding score of 0.514.
B3 returned a binding score of 0.885.
B4 gave a binding score of 0.718.
In the case of B5 it was 0.592; in that of B6, 0.831.
In turn, B7 gave a binding score of 1.01.
The molecule B8 gave a binding score of 0.848.
In the case of MTGLSMDGGGSPKGDVDPFYYDYETVRN (also: human Fc-tagged dimer) [ADP286] it was 1.14; in that of B9, 1.68.
For B10, the binding score is 0.484.
To B11 belongs 0.842.
To B12 belongs 0.806.
In the case of B13 it was 0.924.
